Measured values taken from US20220119492A1 (MEDIKINE, published 2022).
Bridge positions count the residues as written; N and C are the ends. Ends that are not written are not given here.

T1: human IL-2Rβ (CD122 protein, Fc Tag) (27-239) (human, UniProt P14784 27-239)
T1 construct: range 27-239; Bought protein; also called hu-IL-2Rβ subunit; IL-2Rβ subunit; not shown: Fc tag of the bought protein
T1 sequence (looked up): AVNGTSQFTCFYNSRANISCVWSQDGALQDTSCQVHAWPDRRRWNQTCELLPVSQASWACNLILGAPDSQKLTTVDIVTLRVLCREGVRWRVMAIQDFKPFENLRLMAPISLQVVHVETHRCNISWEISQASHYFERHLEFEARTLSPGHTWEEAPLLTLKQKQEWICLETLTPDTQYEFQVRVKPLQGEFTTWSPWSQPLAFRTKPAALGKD

B1: SEQ ID NO 2836 (peptide)
peptide: RWMFDCLFARVGELCDIRPW
modifications: disulfide 6-15 (inferred)
B2: SEQ ID NO 2795 (peptide)
peptide: QNASKGWYPCWIAHVGELCDWD
B3: SEQ ID NO 2787 (peptide)
peptide: FGGKMDWYPCWIANLGELCDLK
B4: SEQ ID NO 2814 (peptide)
peptide: AGFRGRWWPCEYAQVGELCDLE
B5: SEQ ID NO 2783 (peptide)
peptide: WWPCWIADLGELCDLEGPPRGR
modifications: disulfide 4-13 (inferred)
B6: SEQ ID NO 2786 (peptide)
peptide: AQVWYPCWLAKVGELCDLDQWN
modifications: disulfide 7-16 (inferred)
B7: SEQ ID NO 2820 (peptide)
peptide: RAWWWPCELAQVGELCDLEPSS
B8: SEQ ID NO 2798 (peptide)
peptide: EGHWYPCWIAQLGELCDLDW
B9: SEQ ID NO 2782 (peptide)
peptide: KWAWNPCYIARLGELCDLVEPE
B10: SEQ ID NO 2839 (peptide)
peptide: TPWYDCYIANVGDLCDFASA
B11: SEQ ID NO 2793 (peptide)
peptide: RWDYWPCYIAQVGELCDLEVYE
B12: SEQ ID NO 2822 (peptide)
peptide: RYVPDCLKAQVGDLCDFFAW
B13: SEQ ID NO 2788 (peptide)
peptide: WFPCWMAKVGDLCDVDEHQDPS
B14: SEQ ID NO 2825 (peptide)
peptide: QITDSGWYPCWVAKVGELCDMD
modifications: disulfide 10-19 (inferred)
B15: SEQ ID NO 2818 (peptide)
peptide: WYPCWLAQVGELCDRE
modifications: disulfide 4-13 (inferred)
B16: SEQ ID NO 2828 (peptide)
peptide: WLPCWIAKIGDLCDLD
B17: SEQ ID NO 2827 (peptide)
peptide: CYMHDCFMAQVGDLCDRFIS
modifications: not fully specified (bridges); also: disulfide between two of the three cysteines, pairing not given here
B18: SEQ ID NO 2784 (peptide)
peptide: PTLITWYDCLFAEVGELCDM
B19: SEQ ID NO 2824 (peptide)
peptide: WYPCWMAKVGELCDME
B20: SEQ ID NO 2812 (peptide)
peptide: SGKTQMWNPCYVAKVGELCDLV
B21: SEQ ID NO 2826 (peptide)
peptide: YRWWYPCDIAQVGELCDLDYLL
B22: SEQ ID NO 2807 (peptide)
peptide: WWPCDFAQIGELCDLGPRFTGE
B23: SEQ ID NO 2796 (peptide)
peptide: HRWYPCWLAHLGELCDLDPMS
B24: SEQ ID NO 2833 (peptide)
peptide: RVRRHSWWPCEIAVVGELCDLE
B25: SEQ ID NO 2806 (peptide)
peptide: WWPCEIAQIGELCDLEWVRHAE
modifications: disulfide 4-13 (inferred)
B26: SEQ ID NO 2799 (peptide)
peptide: WTGWSAFYPCSIANLGELCDLD
B27: SEQ ID NO 2803 (peptide)
peptide: AYYPCELAQLGELCDLYNI
B28: SEQ ID NO 2823 (peptide)
peptide: WWPCYLAQIGELCDLV
B29: SEQ ID NO 2829 (peptide)
peptide: SRVWHPCWLARVGELCDLEVSD
B30: SEQ ID NO 2830 (peptide)
peptide: WEHEFTWYPCWIAQVGELCDMD
B31: SEQ ID NO 2832 (peptide)
peptide: WYPCWLAQLGELCDQDWDTPS
B32: SEQ ID NO 2840 (peptide)
peptide: LESLDCFFARIGDLCEIWDV
B33: SEQ ID NO 2797 (peptide)
peptide: FYPCWIAFVGELCDLE
B34: SEQ ID NO 2819 (peptide)
peptide: RGVYFPCWLAKVGDLCDSDEF
B35: SEQ ID NO 2835 (peptide)
peptide: LPFQDCYIAQVGELCDLPGT
B36: SEQ ID NO 2834 (peptide)
peptide: DGWWPCWIAQVGELCDLEDPV
B37: SEQ ID NO 2800 (peptide)
peptide: WEKLQNWYPCWIAQMGELCDLE
B38: SEQ ID NO 2801 (peptide)
peptide: TNGVLDWWPCWMAQVGELCDLD
B39: SEQ ID NO 2821 (peptide)
peptide: WYPCWLAKVGELCDQE
B40: SEQ ID NO 2841 (peptide)
peptide: WQIFDCYLAQVGELCDLQDT
modifications: disulfide 6-15 (inferred)
B41: SEQ ID NO 2831 (peptide)
peptide: HRGWVGWYPCEYALPGQLCDLE
B42: SEQ ID NO 2808 (peptide)
peptide: RDWWLPCEFALIGELCDLERSW
B43: SEQ ID NO 2838 (peptide)
peptide: VVCYACDIAHVGELCDLTCR
B44: SEQ ID NO 2837 (peptide)
peptide: GGYYDCLIAEVGELCDMPGQ
B45: SEQ ID NO 2844 (peptide)
peptide: LVYYDCYMAQVGELCDLPSL
modifications: disulfide 6-15 (inferred)
B46: SEQ ID NO 2794 (peptide)
peptide: SLAHRSWYPCWLAQVGELCDLD
B47: SEQ ID NO 2789 (peptide)
peptide: MGDSSSWFPCWMAQLGELCDME
B48: SEQ ID NO 2792 (peptide)
peptide: WYPCWVAQLGELCDLE
B49: SEQ ID NO 2802 (peptide)
peptide: WYPCWVAKLGELCDLE
B50: SEQ ID NO 2816 (peptide)
peptide: WWPCEWARIGELCDLE
modifications: disulfide 4-13 (inferred)
B51: SEQ ID NO 2811 (peptide)
peptide: EWFHDCFLAKVGDLCDLFLW
B52: SEQ ID NO 2864 (peptide)
peptide: KWFHDCFLAKVGDLCDLFLW
B53: SEQ ID NO 2781 (peptide)
peptide: WWPCWIAQVGELCDLEEESRES
B54: SEQ ID NO 2791 (peptide)
peptide: ERRWYPCWLASVGELCDLDMGD
B55: SEQ ID NO 2810 (peptide)
peptide: SWHAETWYPCWLAQVGELCDLD
B56: SEQ ID NO 2790 (peptide)
peptide: MFRYYPCWIASIGELCDLEWGV
modifications: disulfide 7-16 (inferred)
B57: SEQ ID NO 2842 (peptide)
peptide: GRYPDCYIAHVGELCEFYDG
B58: SEQ ID NO 2805 (peptide)
peptide: NDHTAWWPCYFAQVGDLCDLV
B59: SEQ ID NO 2813 (peptide)
peptide: DKAGPNFYPCWLAHVGELCDQA
B60: SEQ ID NO 2815 (peptide)
peptide: WFPCWLAKVGELCDRDDLAGPS
B61: SEQ ID NO 2785 (peptide)
peptide: EISNWFLDCMFADVGDLCDL
B62: SEQ ID NO 2817 (peptide)
peptide: KGSSWFPCYFAQVGDLCDLY
modifications: disulfide 8-17 (inferred)

These binders were tested against T1, human IL-2Rβ (CD122 protein, Fc Tag) … (assay: phage ELISA competition).
Method in brief: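 Competitive binding ELISA in which a phage tracer competes with test ligands for human IL-2Rβ-Fc; IC50 is derived from the absorbance signal across the ligand dilution series. Without washing, 50 μL of phage tracer was added for 45 min at 4° C. Bound phage was detected with TMB for 1 to 15 min at 25° C, followed by stop solution and absorbance at 450 nm.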

Row | IC50 [µM] | Binder
1 | < 100 | B1
2 | < 100 | B2
3 | < 100 | B3
4 | < 100 | B4
5 | < 100 | B5
6 | < 100 | B6
7 | < 100 | B7
8 | < 100 | B8
9 | < 100 | B9
10 | < 100 | B10
11 | < 100 | B11
12 | < 100 | B12
13 | < 100 | B13
14 | < 100 | B14
15 | < 100 | B15
16 | < 100 | B16
17 | < 100 | B17
18 | < 100 | B18
19 | < 100 | B19
20 | < 100 | B20
21 | < 100 | B21

Row | IC50 [µM] | Binder
22 | < 100 | B22
23 | < 100 | B23
24 | < 100 | B24
25 | < 100 | B25
26 | < 100 | B26
27 | < 100 | B27
28 | < 100 | B28
29 | < 100 | B29
30 | < 100 | B30
31 | < 100 | B31
32 | < 100 | B32
33 | < 100 | B33
34 | < 100 | B34
35 | < 100 | B35
36 | < 100 | B36
37 | < 100 | B37
38 | < 100 | B38
39 | < 100 | B39
40 | < 100 | B40
41 | < 100 | B41
42 | < 100 | B42

Row | IC50 [µM] | Binder
43 | < 100 | B43
44 | < 100 | B44
45 | < 100 | B45
46 | < 100 | B46
47 | < 100 | B47
48 | < 100 | B48
49 | < 100 | B49
50 | < 100 | B50
51 | < 100 | B51
52 | < 100 | B52
53 | < 100 | B53
54 | < 100 | B54
55 | < 100 | B55
56 | < 100 | B56
57 | < 100 | B57
58 | < 100 | B58
59 | < 100 | B59
60 | < 100 | B60
61 | < 100 | B61
62 | < 100 | B62
